Changes are numbered by the printed parent chain.

Assay [1] addresses T1, human AXL extracellular domain transiently expressed on CHO-S cells (human, UniProt P30530 26-451).
T1 construct: also called human AXL ECD on CHO-S cells
T1 sequence: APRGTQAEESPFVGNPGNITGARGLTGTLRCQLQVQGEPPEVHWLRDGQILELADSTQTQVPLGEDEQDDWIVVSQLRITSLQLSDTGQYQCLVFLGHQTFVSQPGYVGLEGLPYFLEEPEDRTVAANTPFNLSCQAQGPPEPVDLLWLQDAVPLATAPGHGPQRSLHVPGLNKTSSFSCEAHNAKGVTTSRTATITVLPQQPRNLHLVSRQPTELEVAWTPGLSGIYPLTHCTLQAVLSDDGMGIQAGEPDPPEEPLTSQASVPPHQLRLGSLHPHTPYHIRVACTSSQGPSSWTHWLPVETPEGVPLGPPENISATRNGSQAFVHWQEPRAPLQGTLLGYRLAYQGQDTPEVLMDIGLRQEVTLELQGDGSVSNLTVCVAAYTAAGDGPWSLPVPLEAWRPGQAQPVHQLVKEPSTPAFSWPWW
Kind of assay: flow cytometry, serial dilution on CHO-S cells transiently expressing human AXL ECD, AF647 anti-human IgG secondary, GeoMean (RL1-H). How it is done: (§1) Six anti-human AXL antibodies and reference antibody analogues were evaluated by flow cytometry for in vitro binding to human or cynomolgus AXL extracellular domain transiently expressed on CHO-S cells. For comparison, reference antibody analogues were included in the evaluation. All antibodies were incubated in serial dilutions together with the transiently transfected CHO-S cells for 30 min at 4° C. Following two washing steps, the cells were incubated with AF647-conjugated secondary anti-human IgG (H+L) antibody for 30 min at 4° C. A final washing step was done prior to acquisition of the cells on an iQue Plus screener. Results were calculated by GrafPad Prism software.

In assay [2] the target is T2, cynomolgus AXL extracellular domain transiently expressed on CHO-S cells (cynomolgus).
T2 construct: extracellular domain; also called cynomolgus AXL ECD on CHO-S cells
Description: flow cytometry, serial dilution on CHO-S cells transiently expressing cynomolgus AXL ECD, AF647 anti-human IgG secondary, GeoMean (RL1-H). The protocol: as §1
Background: Flow cytometry measures light scatter and fluorescence of single cells or particles in a stream.

The target of assay [3] is T3, His-tagged human AXL extracellular domain (recombinant) (human, UniProt P30530 26-451).
T3 construct: treated as one molecule; also called human AXL ECD; AXL-His ECD; not shown: His tag
T3 sequence: T1 sequence
Description: SPR (IBIS MX96), antibody captured, monovalent His-tagged AXL ECD in solution, 1:1 fit. The protocol:
(§2) The kinetic binding analysis was performed by surface plasmon resonance (SPR), using a Continuous Flow Microspotter (CFM, Wasatch Microfluidics, Salt Lake City, US) combined with an IBIS MX96 SPR instrument (IBIS Technologies, The Netherlands).
(§3) His-tagged human and cynomolgus AXL ECD were expressed in Expi293F cells and purified by Ni-NTA chromatography. Binding kinetics were measured under monovalent antigen conditions by immobilizing anti-AXL antibodies and keeping the monovalent AXL antigen in solution. Antibodies were captured onto a G-a-hu-IgG Fc SensEye® (Ssens BV, The Netherlands) for 15 minutes using a Continuous Flow Microspotter (CFM, Wasatch Microfluidics, Salt Lake City, US). After spotting, the SensEye® was positioned in the IBIS MX96 biosensor and captured proteins were fixed to the surface using FixIT kit (Ssens BV, The Netherlands). Kinetic analysis was performed by applying kinetic titration series (Karlsson et al., Anal Biochem. 349(1):136-47 (2006)), with antigen injections at increasing concentrations from 0.14 nM to 100 nM. Antigen association and dissociation was performed for 15 minutes. After each antigen injection series, the surface was regenerated by 100 mM H₃PO₄, pH 3 regeneration buffer. The recorded binding responses were fitted to a simple Langmuir 1:1 binding model with Scrubber 2 software for calculation of the on-rate (kₒₙ or ka), off-rate (koff or kd) and affinity (KD) constants.

Assay [4] addresses T4, His-tagged cynomolgus AXL extracellular domain (recombinant) (cynomolgus).
T4 construct: extracellular domain; Expressed in Expi293F cells, purified by Ni-NTA; also called cynomolgus AXL ECD
The assay is described as above. The protocol:
as §2, §3

B1: 22995 (antibody, human IgG1, kappa, L234A L235A, V domains shown)
VH: EVQLVESGGSLVQPGGSLRLSCAASGFTFSSSAMSWVRQAPGKGLEWVSTISGSDSSTYDADSVKGRSTISRDNSKNTLYLQMNSLRADDTAVYYCAKKGAYCSGTICYDPFDYWGQGTLVTVSS
VL: DIVLTQSPVLAVSLGQRATISCRASQSVSISSINLMHWYQQKPGQQPKLLIYRASNLASGIPARFSGSGSGTDFTLTIDPVQADDIAAYYCQQSRESPLTFGGGTKVEIKR
notes: Fully human IgG1-LALA, kappa
One may read the EC50 (read off the curve) as the concentration needed to bring the measured effect to its halfway point. Lower therefore signals higher potency in that assay. As usually defined, the Kd is the concentration at which binding is half-saturated. In general, koff refers to the rate constant with which the complex falls apart. By kon is commonly meant the rate constant with which the complex forms. As for B1, the “EC50 (read off the curve)” value in assay [1] was roughly 0.007 µg/mL. Besides, the “EC50 (read off the curve)” value in assay [2] is roughly 0.4 µg/mL. For the same molecule, in assay [3], the Kd was 0.69 nM, the koff was found to be 0.00057 s⁻¹ and the kon was determined as 820000 M⁻¹ s⁻¹. Also, in assay [4], the Kd came out at 80 nM, the koff was determined as 0.0011 s⁻¹ and the kon amounted to 14000 M⁻¹ s⁻¹.

B2: 22883 (antibody, human IgG1, kappa, L234A L235A, V domains shown)
VH: EVQLVESGGGLVQPGGSLRLSCAASGFTFSSYAMSWVRQAPGKGLEWVSAISGGGDYTYYADSVKGRFTISRDNSKNTLYLQMNSLRAEDTAVYYCAKEEWELRGPFRYWGQGTLVTVSS
VL: DIQMTQSPSTLSASVGDRVTITCRASQSISSWLAWYQQKPGKAPKFLIYKASSLESGVPSRFSGSGSGTEFTLTISSLQPDDFATYYCQQYNGFSWTFGQGTKVEIKR
notes: Fully human IgG1-LALA, kappa
B2: the figures for the “EC50 (read off the curve)” value in assay [1] and in assay [2] were roughly 0.07 µg/mL and roughly 0.05 µg/mL, respectively. Further, the Kd came to 9.6 nM in assay [3] and 7.2 nM in assay [4]. The koff in assay [3] was 0.00031 s⁻¹; in assay [4], 0.0002 s⁻¹. Besides, the figures for the kon in assay [3] and in assay [4] were 32000 M⁻¹ s⁻¹ and 28000 M⁻¹ s⁻¹, respectively.

B3: 23203_3 (antibody, human IgG1, kappa, L234A L235A, V domains shown)
VH: QVQLQQWGAGLLKPSETLSLTCTVSGGSFSGYYWTWIRQPPGKGLEWIGEINHAGSTNYNPSLKSRVTISVDTSKNQFSLKLSSVTAADTAVYYCSSREYSSRWHFDYWGQGTLVTVSS
VL: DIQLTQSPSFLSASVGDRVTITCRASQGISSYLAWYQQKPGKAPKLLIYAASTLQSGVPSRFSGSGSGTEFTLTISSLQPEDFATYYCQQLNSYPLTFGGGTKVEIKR
notes: Fully human IgG1-LALA, kappa
Regarding B3, the concentration for a half-maximal effect (EC50 (read off the curve)) in assay [1] and in assay [2] was roughly 0.02 µg/mL in each case. The Kd in assay [3] worked out at 15 nM; in assay [4], 13 nM. Besides, the koff in assay [3] was found to be 0.0016 s⁻¹; in assay [4], 0.0018 s⁻¹. Further, the kon in assay [3] turned out to be 110000 M⁻¹ s⁻¹; in assay [4] it was 140000 M⁻¹ s⁻¹.

B4: 23203_4 (antibody, human IgG1, kappa, L234A L235A, V domains shown)
VH: B3 VH with T23A, S25Y
VL: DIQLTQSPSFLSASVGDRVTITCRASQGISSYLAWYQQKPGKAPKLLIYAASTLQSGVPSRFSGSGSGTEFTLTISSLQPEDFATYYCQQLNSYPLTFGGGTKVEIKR
notes: Fully human IgG1-LALA, kappa
B4: the “EC50 (read off the curve)” value in assay [1] and in assay [2] was roughly 0.02 µg/mL in each case. Also, the Kd stood at 25 nM in assay [3] and 15 nM in assay [4]. Also, the koff in assay [3] was 0.0023 s⁻¹; in assay [4], 0.0021 s⁻¹. In addition, the kon worked out at 90000 M⁻¹ s⁻¹ in assay [3] and 150000 M⁻¹ s⁻¹ in assay [4].

B5: 23203_1 (antibody, human IgG1, kappa, L234A L235A, V domains shown)
VH: B3 VH with Q6E, W7S, A9P, L12V, T35S
VL: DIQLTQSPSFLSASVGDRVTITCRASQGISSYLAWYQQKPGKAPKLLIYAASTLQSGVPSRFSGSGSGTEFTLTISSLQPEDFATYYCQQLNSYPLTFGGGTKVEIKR
notes: Fully human IgG1-LALA, kappa
For the molecule B5, in assay [1], the “EC50 (read off the curve)” value is roughly 0.02 µg/mL. Further, in assay [2], the “EC50 (read off the curve)” value was roughly 0.02 µg/mL. Moreover, in assay [3], the Kd turned out to be 15 nM, the koff stood at 0.0021 s⁻¹ and the kon was determined as 140000 M⁻¹ s⁻¹. Moreover, in assay [4], the Kd stood at 13 nM, the koff came to 0.0024 s⁻¹ and the kon is 180000 M⁻¹ s⁻¹.

B6: 23203_2 (antibody, human IgG1, kappa, L234A L235A, V domains shown)
VH: B3 VH with T23A, S25Y, A54S
VL: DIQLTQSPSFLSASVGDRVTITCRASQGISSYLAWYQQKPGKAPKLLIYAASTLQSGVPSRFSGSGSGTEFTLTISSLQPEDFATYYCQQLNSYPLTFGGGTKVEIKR
notes: Fully human IgG1-LALA, kappa
For B6, the “EC50 (read off the curve)” value in assay [1] was roughly 0.02 µg/mL. For the same molecule, the “EC50 (read off the curve)” value in assay [2] is roughly 0.02 µg/mL. In addition, in assay [3], the Kd was 11 nM, the koff was 0.0016 s⁻¹ and the kon is 140000 M⁻¹ s⁻¹. In addition, in assay [4], the Kd came to 15 nM, the koff is 0.0016 s⁻¹ and the kon was determined as 110000 M⁻¹ s⁻¹.

Source of the values: patent publication US20210269532A1 (SYMPHOGEN A S, published 2021).
